# Bridge positions count the residues as written; N and C are the ends. Square brackets hold non-standard residues; d marks the D form. Primed or numbered codes have the meaning given here. PEG4′ = not defined here
# How the values were obtained:
# Experiment in all cases: cell-based or functional assay
# [1] = molecular target: HIV-1 gp41 of isolate KNH1135 (clade A) (HIV-1 isolate KNH1135)
# [2] = molecular target: HIV-1 gp41 of isolate KNH1144 (clade A) (HIV-1 isolate KNH1144)
# [3] = molecular target: HIV-1 gp41 of isolate KNH1209 (clade A) (HIV-1 isolate KNH1209)
# [4] = molecular target: HIV-1 gp41 of isolate KSM4030 (clade A) (HIV-1 isolate KSM4030)
# [5] = molecular target: HIV-1 gp41 of isolate 93RW024 (clade A) (HIV-1 isolate 93RW024)
# [6] = molecular target: HIV-1 gp41 of isolate CM244 (AE) (HIV-1 isolate CM244)
# [7] = molecular target: HIV-1 gp41 of isolate NP1251 (AE) (HIV-1 isolate NP1251)
# [8] = molecular target: HIV-1 gp41 of isolate NP1695 (AE) (HIV-1 isolate NP1695)
# [9] = molecular target: HIV-1 gp41 of isolate CAM0014 (AG) (HIV-1 isolate CAM0014)
# [10] = molecular target: HIV-1 gp41 of isolate CAM0008 (AG) (HIV-1 isolate CAM0008)
# [11] = molecular target: HIV-1 gp41 of isolate CAM1475MV (AG) (HIV-1 isolate CAM1475MV)
# [12] = molecular target: HIV-1 gp41 of isolate DJ263/GS003 (AG) (HIV-1 isolate DJ263/GS003)
# [13] = molecular target: HIV-1 gp41 of isolate 873 (clade B) (HIV-1 isolate 873)
# [14] = molecular target: HIV-1 gp41 of isolate Ba-L (clade B) (HIV-1 isolate Ba-L)
# [15] = molecular target: HIV-1 gp41 of isolate BX08 (clade B) (HIV-1 isolate BX08)
# [16] = molecular target: HIV-1 gp41 of isolate MN/H9 (clade B) (HIV-1 isolate MN/H9)
# [17] = molecular target: HIV-1 gp41 of isolate NP1538 (clade B) (HIV-1 isolate NP1538)
# [18] = molecular target: HIV-1 gp41 of isolate US4/GS007 (clade B) (HIV-1 isolate US4/GS007)
# [19] = molecular target: HIV-1 gp41 of isolate PBL288 (clade C) (HIV-1 isolate PBL288)
# [20] = molecular target: HIV-1 gp41 of isolate TZBD9/11 (clade C) (HIV-1 isolate TZBD9/11)
# [21] = molecular target: HIV-1 gp41 of isolate 57128 (clade D) (HIV-1 isolate 57128)
# [22] = molecular target: HIV-1 gp41 of isolate 301965 (clade D) (HIV-1 isolate 301965)
# [23] = molecular target: HIV-1 gp41 of isolate 93UG065 (clade D) (HIV-1 isolate 93UG065)
# [24] = molecular target: HIV-1 gp41 of isolate A03349M1 (clade D) (HIV-1 isolate A03349M1)
# [25] = molecular target: HIV-1 gp41 of isolate A07412M1 (clade D) (HIV-1 isolate A07412M1)
# [26] = molecular target: HIV-1 gp41 of isolate J32228M4 (clade D) (HIV-1 isolate J32228M4)
# [27] = molecular target: HIV-1 gp41 of isolate NKU3006 (clade D) (HIV-1 isolate NKU3006)
# [28] = molecular target: HIV-1 gp41 of isolate 92UG029 (clade A) (HIV-1 isolate 92UG029)
# [29] = molecular target: HIV-1 gp41 of isolate KER2008 (clade A) (HIV-1 isolate KER2008)
binder,measurement,setting,value
"Ac-[dH][dP][dC][dD][dY][dP][dE][dW][dQ][dW][dL][dC][dE][dL]G[PEG4′]K-NH2 (disulfide 3-12 (inferred); not fully specified (some residues); numbers in words are those of the source; also: PIE12-2 trimer on scaffold, fourth arm PEG28 + PEG4 with cholesteryl carbamate) [CPT31 (cholesterol-PIE12-2-trimer with PEG32 fourth-arm spacer)]",1 nM inhibition,[1],80.6%
same,10 nM inhibition,[1],83.4%
same,1 nM inhibition,[2],78.2%
same,10 nM inhibition,[2],80.6%
same,1 nM inhibition,[3],94.3%
same,10 nM inhibition,[3],95.2%
same,1 nM inhibition,[4],93.6%
same,10 nM inhibition,[4],95.6%
same,1 nM inhibition,[5],97%
same,10 nM inhibition,[5],99.3%
same,1 nM inhibition,[6],95.4%
same,10 nM inhibition,[6],99.5%
same,1 nM inhibition,[7],97%
same,10 nM inhibition,[7],98.4%
same,1 nM inhibition,[8],95.7%
same,10 nM inhibition,[8],97%
same,1 nM inhibition,[9],98.8%
same,10 nM inhibition,[9],99.5%
same,1 nM inhibition,[10],96.8%
same,10 nM inhibition,[10],99.7%
same,1 nM inhibition,[11],98.3%
same,10 nM inhibition,[11],98.8%
same,1 nM inhibition,[12],96.7%
same,10 nM inhibition,[12],99.2%
same,1 nM inhibition,[13],93.6%
same,10 nM inhibition,[13],98.7%
same,1 nM inhibition,[14],96.9%
same,10 nM inhibition,[14],99.8%
same,1 nM inhibition,[15],94.2%
same,10 nM inhibition,[15],99.5%
same,1 nM inhibition,[16],99.3%
same,10 nM inhibition,[16],100%
same,1 nM inhibition,[17],95%
same,10 nM inhibition,[17],99.4%
same,1 nM inhibition,[18],91.1%
same,10 nM inhibition,[18],98.7%
same,1 nM inhibition,[19],3%
same,10 nM inhibition,[19],12%
same,1 nM inhibition,[20],84.7%
same,10 nM inhibition,[20],85.4%
same,1 nM inhibition,[21],35.2%
same,10 nM inhibition,[21],37.3%
same,1 nM inhibition,[22],96.1%
same,10 nM inhibition,[22],97.7%
same,1 nM inhibition,[23],93.7%
same,10 nM inhibition,[23],94.4%
same,1 nM inhibition,[24],93.6%
same,10 nM inhibition,[24],99.5%
same,1 nM inhibition,[25],92%
same,10 nM inhibition,[25],96.7%
same,1 nM inhibition,[26],96.1%
same,10 nM inhibition,[26],98%
same,1 nM inhibition,[27],97.2%
same,10 nM inhibition,[27],99.8%
same,1 nM inhibition,[28],95.2%
same,10 nM inhibition,[28],98.2%
same,1 nM inhibition,[29],84.1%
same,10 nM inhibition,[29],85.3%
